Test results as given in US20190092852A1.

Legend:
[1] = molecular target: human IL-33 N-His (human)
[2] = molecular target: T1, human IL-33 (R&D Systems, #3625-IL-010/CF) (human) (UniProt O95760)
T1 sequence (looked up): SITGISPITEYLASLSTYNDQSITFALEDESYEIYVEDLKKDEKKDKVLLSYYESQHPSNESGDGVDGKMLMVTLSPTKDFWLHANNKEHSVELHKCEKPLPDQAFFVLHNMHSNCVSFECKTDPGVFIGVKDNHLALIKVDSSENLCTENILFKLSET

[3] = molecular target: T1, human IL-33 (R&D Systems, #3625-IL-010/CF) (human); remark: listed apart in the source
[4] = molecular target: human ST2L on HEK-BLUE IL-33/IL-1beta cells (human) (UniProt Q01638)
[5] = molecular target: cyno IL-33 (cell-based blocking assay of Example 2) (cynomolgus monkey)
[6] = molecular target: human IL-33 (cell-based blocking assay of Example 2) (human) (UniProt O95760)
[7] = molecular target: T1, human IL-33 (R&D Systems, #3625-IL-010/CF) (human); remark: listed apart in the source
[8] = molecular target: T1, human IL-33 (R&D Systems, #3625-IL-010/CF) (human); remark: listed apart in the source
[9] = molecular target: cynomolgus monkey N-terminal 6-His-tagged and C-terminal Avi-tagged IL-33 (S112-T270) (cynomolgus monkey); assay: cell-based or functional assay
[10] = molecular target: T1, human IL-33 (R&D Systems, #3625-IL-010/CF) (human); assay: cell-based or functional assay

cyno IL-33 (cell-based blocking assay of Example 2) (cynomolgus monkey), sequence (chain, as listed by the source): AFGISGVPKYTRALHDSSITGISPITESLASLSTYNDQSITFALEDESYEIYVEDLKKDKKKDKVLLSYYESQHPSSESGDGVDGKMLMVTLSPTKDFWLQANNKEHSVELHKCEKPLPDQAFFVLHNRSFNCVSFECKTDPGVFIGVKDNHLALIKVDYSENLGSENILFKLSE
cynomolgus monkey N-terminal 6-His-tagged and C-terminal Avi-tagged IL-33 (S112-T270) (cynomolgus monkey), sequence (chain, as listed by the source limits assumed): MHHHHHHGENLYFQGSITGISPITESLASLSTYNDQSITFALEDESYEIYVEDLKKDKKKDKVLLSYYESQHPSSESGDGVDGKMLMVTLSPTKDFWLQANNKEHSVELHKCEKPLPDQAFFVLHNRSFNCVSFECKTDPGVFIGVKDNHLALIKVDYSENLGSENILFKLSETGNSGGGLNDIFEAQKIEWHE
human ST2L on HEK-BLUE IL-33/IL-1beta cells (human), sequence (Q01638 19-556 limits assumed): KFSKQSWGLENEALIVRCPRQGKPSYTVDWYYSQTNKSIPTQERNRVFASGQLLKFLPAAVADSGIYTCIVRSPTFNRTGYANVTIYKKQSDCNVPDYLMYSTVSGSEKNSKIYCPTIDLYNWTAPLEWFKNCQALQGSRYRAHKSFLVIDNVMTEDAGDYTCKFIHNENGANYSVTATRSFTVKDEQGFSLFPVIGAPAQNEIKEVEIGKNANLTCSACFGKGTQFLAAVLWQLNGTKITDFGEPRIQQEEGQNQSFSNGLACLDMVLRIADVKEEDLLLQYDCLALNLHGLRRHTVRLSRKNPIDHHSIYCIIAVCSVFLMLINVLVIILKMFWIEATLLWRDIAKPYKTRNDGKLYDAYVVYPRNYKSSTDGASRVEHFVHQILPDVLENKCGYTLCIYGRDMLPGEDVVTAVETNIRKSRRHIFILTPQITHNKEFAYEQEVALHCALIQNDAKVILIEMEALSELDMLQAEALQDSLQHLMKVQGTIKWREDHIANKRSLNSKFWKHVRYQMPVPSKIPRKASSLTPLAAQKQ

control IgG4 antibody
IC50 as printed in the table (fit value of a flat curve: Control IgG4 stays at about 115-125 % IL-33 activity up to 1e4 pM, no inhibition); SEAP reporter, HEK-BLUE IL-33 cells, 15 pM human IL-33 N-His [1]: 7.63e-06 pM
IC90 as printed in the table (fit value of a flat curve: Control IgG4 stays at about 115-125 % IL-33 activity up to 1e4 pM, no inhibition); SEAP reporter, HEK-BLUE IL-33 cells, 15 pM human IL-33 N-His [1]: 1.08e-06 pM
Ph-p38 MFI at 0.4 nM Ab (500 pM human IL-33, primary basophils) [2]: 152 MFI
Ph-p38 MFI at 2 nM Ab (500 pM human IL-33, primary basophils) [3]: 110 MFI

human IL-33 N-His (ligand)
EC50 (SEAP reporter OD 620, HEK-BLUE IL-33/IL-1beta cells) [4]: 6 pM

sST2-LZ (sST2 (M1-F328) C-terminal leucine zipper (LZ)-Flag-His) (receptor)
IC50 (HEK-BLUE SEAP reporter, IL-33 blocking) [5]: 1.8 pM
IC90 (HEK-BLUE SEAP reporter, IL-33 blocking) [5]: 3.6 pM
IC50 (HEK-BLUE SEAP reporter, IL-33 blocking) [6]: 12.2 pM
IC90 (HEK-BLUE SEAP reporter, IL-33 blocking) [6]: 46.7 pM
IC50; SEAP reporter, HEK-BLUE IL-33 cells, 15 pM human IL-33 N-His, 20 h [1]: 62.1 pM
IC90; SEAP reporter, HEK-BLUE IL-33 cells, 15 pM human IL-33 N-His, 20 h [1]: 257 pM
IC50, IL-33-induced phospho-p38 in primary human basophils, 500 pM hIL-33 [7]: 7.9e-13 M
IC50 (read off the curve) [8]: 0.8 pM
Ph-p38 MFI at 0.4 nM sST2 (500 pM human IL-33, primary basophils) [2]: 113 MFI
Ph-p38 MFI at 2 nM sST2 (500 pM human IL-33, primary basophils) [3]: 40 MFI
HEK-BLUE SEAP reporter IC50 [9]: 30 pM
HEK-BLUE SEAP reporter IC50 [10]: 27 pM
IFN-γ secretion from primary NK cells, IC50 [10]: 150 pM
